This note sets out measurements from patent US20210324374, “COMPOSITIONS AND METHODS FOR SCREENING APTAMERS” (Chan Zuckerberg Biohub, Inc., published 2021).

In this series the target is VEGF (vascular endothelial growth factor) (UniProt P15692-4 P15692-4:27-191). The series can be described thus: N2A2 flow-cell fluorescence, natural DNA. The following applies: tags: Dylight 650 NHS labelled; R&D Systems; chain copies: 2. From the text:
We used N2A2 to measure the VEGF binding affinity of all sequences in these pools simultaneously. We performed three separate experiments: 1) VEGF binding to the natural DNA pools, 2) VEGF binding to non-natural DNA modified with tryptophan, and 3) VEGF binding to non-natural DNA modified with tyrosine. In addition to the six aptamer pools described above (R0-R5), we included three other DNA sequences on the flow cell for each experiment: (1) a known “fiducial mark” sequence with a fluorescently-labeled complement for intensity calibration, (2) a “positive control” sequence based on a published aptamer known to bind to VEGF, and (3) a “negative control” sequence known not to bind to VEGF. The same input DNA stocks and labeled VEGF protein were used for all three experiments, but new sequencing cartridges and flow cells were used for each separate experiment. Other details of experimental setup of the sequencing cartridge, protein titrations, and software and hardware modifications have previously been described in the provided grant document and manuscript. VEGF protein was labeled with Dylight647 fluorophore to enable imaging on the N2A2.

Chain of VEGF (vascular endothelial growth factor) (P15692 other isoform, or with tags, fused parts or gaps): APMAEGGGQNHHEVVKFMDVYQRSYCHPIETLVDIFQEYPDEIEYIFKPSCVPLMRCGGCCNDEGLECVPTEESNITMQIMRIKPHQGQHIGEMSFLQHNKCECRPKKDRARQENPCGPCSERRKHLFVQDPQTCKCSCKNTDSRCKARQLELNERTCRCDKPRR

B1: K SL2-B positive control (ssDNA)
DNA: AGCAGCACAGAGGTCAGATGAATTGGGCCCGTCCGTATGGTGGGTCCTATGCGTGCTACCGTGAA
On to B1, for which the binding result is reported as “binds”.
